Laboratory results taken from the supplement of paper PMC10567573.

B1: OR3A1 (parent)
chain: PMYFFLGNLSVLDVGCISVTVPSM

Variants of: B1
Experiment: protein stability index of a GFP-peptide fusion (GPS, HEK-293T) (PSI 1-6); higher = more stable
Settings: c terminus: a fixed tail appended
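Note: lentivirally expressed fusions sorted by FACS into six bins by GFP to DsRed ratio, PSI derived from sequencing read proportions per bin multiplied by bin number.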

Variant	protein stability index
PMYFFLGNLSVHDVGCISVTVPSM	2.78
PMYFFLGNLSVDDVGCISVTVPSM	3.05
PMYFFLGNLSVIDVGCISVTVPSM	3.78
PMYFFLGNLSVYDVGCISVTVPSM	3.05
PMYFFLGNLSVSDVGCISVTVPSM	1.53
PMYFFLGNLSVEDVGCISVTVPSM	1.85
PMYFFLGNLSVFDVGCISVTVPSM	2.22
PMYFFLGNLSVMDVGCISVTVPSM	1.62
PMYFFLGNLSVADVGCISVTVPSM	2.37
PMYFFLGNLSVNDVGCISVTVPSM	1.49
PMYFFLGNLSVCDVGCISVTVPSM	2.83
PMYFFLGNLSVGDVGCISVTVPSM	2.35
PMYFFLGNLSVTDVGCISVTVPSM	4.2
PMYFFAGNLSVLDVGCISVTVPSM	2.24
PMYFFPGNLSVLDVGCISVTVPSM	1.62
PMYFFTGNLSVLDVGCISVTVPSM	2.21
PMYFFQGNLSVLDVGCISVTVPSM	2.67
PMYFFEGNLSVLDVGCISVTVPSM	2.34
PMYFFVGNLSVLDVGCISVTVPSM	2.32
PMYFFDGNLSVLDVGCISVTVPSM	1.08
PMYFFMGNLSVLDVGCISVTVPSM	1.6
PMYFFLGNLSVLDVGCIEVTVPSM	2.7
PMYFFLGNLSVLDVGCIGVTVPSM	2.33
PMYFFLGNLSVLDVGCIAVTVPSM	3.06

Variant	protein stability index
PMYFFLGNLSVLDVGCIDVTVPSM	2.66
PMYFFLGNLSVLDVGCIHVTVPSM	3.06
PMYFFLGNLSVLDVGCIFVTVPSM	1.68
PMYFFLGNLSVLDVGNISVTVPSM	2.12
PMYFFLGNLSVLDVGKISVTVPSM	2.14
PMYFFLGNLSVLDVGSISVTVPSM	3.15
PMYFFLGNLSVLDVGEISVTVPSM	2.33
PMYFFLGNLSVLDVGRISVTVPSM	3.48
PMYFFLGNLSVLDVGHISVTVPSM	2.83
PMYFFLGNLSVLDVGDISVTVPSM	3.14
PMYFFLGNLSVLDVGPISVTVPSM	2.85
PMYFFLGNLSVLDVGMISVTVPSM	3.08
PMYFFLGNLSVLDVGFISVTVPSM	2.85
PMYFFLGNLSVLDVGGISVTVPSM	2.78
PMYFFLGNLSVLDVGQISVTVPSM	2.99
PMYFFLGNLSVLDVGTISVTVPSM	3.51
PMYFFLGNLSVLDVGYISVTVPSM	2.14
PMYFFLGNLSVLDYGCISVTVPSM	4.29
PMYFFLGNLSVLDHGCISVTVPSM	2.23
PMYFFLGNLSVLDLGCISVTVPSM	4.23
PMYFFLGNLSVLDMGCISVTVPSM	3.24
PMYFFLGNLSVLDTGCISVTVPSM	3.36
PMYFFLGNLSVLDGGCISVTVPSM	3.25
PMYFFLGNLSVLDAGCISVTVPSM	3.36

Variant	protein stability index
PMYFFLGNLSVLDNGCISVTVPSM	3.31
PMYFFLGNLSVLDRGCISVTVPSM	1.39
PMYFFLGNLSVLDCGCISVTVPSM	1.99
PMYFFLGNLSVLDDGCISVTVPSM	1.96
PMYFFLGNLSVLDPGCISVTVPSM	4.21
PMYFFLGNLSVLDQGCISVTVPSM	1.89
PMYFFLGNESVLDVGCISVTVPSM	3.5
PMYFFLGNKSVLDVGCISVTVPSM	2.86
PMYFFLGNDSVLDVGCISVTVPSM	2
PMYFFLGNCSVLDVGCISVTVPSM	3.93
PMYFFLGNQSVLDVGCISVTVPSM	1.96
PMYFFLGNSSVLDVGCISVTVPSM	1.99
PMYFFLGNTSVLDVGCISVTVPSM	2.59
PMYFFLGNASVLDVGCISVTVPSM	2.42
PMYFFLGNRSVLDVGCISVTVPSM	3.52
EMYFFLGNLSVLDVGCISVTVPSM	2.01
YMYFFLGNLSVLDVGCISVTVPSM	2.1
SMYFFLGNLSVLDVGCISVTVPSM	2.89
HMYFFLGNLSVLDVGCISVTVPSM	2.79
LMYFFLGNLSVLDVGCISVTVPSM	4.36
CMYFFLGNLSVLDVGCISVTVPSM	2.46
NMYFFLGNLSVLDVGCISVTVPSM	3.87
TMYFFLGNLSVLDVGCISVTVPSM	2.16
AMYFFLGNLSVLDVGCISVTVPSM	2.23

Variant	protein stability index
QMYFFLGNLSVLDVGCISVTVPSM	3.32
IMYFFLGNLSVLDVGCISVTVPSM	2.88
RMYFFLGNLSVLDVGCISVTVPSM	3.81
PMYFFLGNLSVLDVGCFSVTVPSM	3.32
PMYFFLGNLSVLDVGCNSVTVPSM	4.43
PMYFFLGNLSVLDVGCWSVTVPSM	3.68
PMYFFLGNLSVLDVGCSSVTVPSM	3.03
PMYFFLGNLSVLDVGCDSVTVPSM	3.15
PMYFFLGNLSVLDVGCMSVTVPSM	2.76
PMYFFLGNLSVLDVGCKSVTVPSM	2.97
PMYFFLGNLSVLDVGCYSVTVPSM	1.63
PMYFFLGNLSVLDVGCHSVTVPSM	2.75
PMYFFLGNLSVLDVGCESVTVPSM	2.17
PMYFFLGNLSVLDVGCRSVTVPSM	3.71
PMYFFLGNLSVLDVGCASVTVPSM	3.4
PMYFFLGNLSVLDVGCPSVTVPSM	3.39
PMYFFLTNLSVLDVGCISVTVPSM	2.84
PMYFFLHNLSVLDVGCISVTVPSM	1.39
PMYFFLYNLSVLDVGCISVTVPSM	2.69
PMYFFLENLSVLDVGCISVTVPSM	3.86
PMYFFLQNLSVLDVGCISVTVPSM	2.31
PMYFFLANLSVLDVGCISVTVPSM	3.1
